# Test results: patent publication US20200123264A1 (Regeneron, published 2020)
# T1: extracellular domain of human LEPR with an N-terminal myc-myc tag, GPI-anchored on HEK293 cells (human, UniProt P48357 22-839, GPI anchor at the C-terminus ; A GPI anchor is attached at the C end through a carboxypeptidase M derived peptide. The protein is displayed on HEK293 cells.)
# T1 construct: also called HEK293/hLEPR-GPI; Mycx2-hLEPR(Ecto)-GPI
# T1 sequence: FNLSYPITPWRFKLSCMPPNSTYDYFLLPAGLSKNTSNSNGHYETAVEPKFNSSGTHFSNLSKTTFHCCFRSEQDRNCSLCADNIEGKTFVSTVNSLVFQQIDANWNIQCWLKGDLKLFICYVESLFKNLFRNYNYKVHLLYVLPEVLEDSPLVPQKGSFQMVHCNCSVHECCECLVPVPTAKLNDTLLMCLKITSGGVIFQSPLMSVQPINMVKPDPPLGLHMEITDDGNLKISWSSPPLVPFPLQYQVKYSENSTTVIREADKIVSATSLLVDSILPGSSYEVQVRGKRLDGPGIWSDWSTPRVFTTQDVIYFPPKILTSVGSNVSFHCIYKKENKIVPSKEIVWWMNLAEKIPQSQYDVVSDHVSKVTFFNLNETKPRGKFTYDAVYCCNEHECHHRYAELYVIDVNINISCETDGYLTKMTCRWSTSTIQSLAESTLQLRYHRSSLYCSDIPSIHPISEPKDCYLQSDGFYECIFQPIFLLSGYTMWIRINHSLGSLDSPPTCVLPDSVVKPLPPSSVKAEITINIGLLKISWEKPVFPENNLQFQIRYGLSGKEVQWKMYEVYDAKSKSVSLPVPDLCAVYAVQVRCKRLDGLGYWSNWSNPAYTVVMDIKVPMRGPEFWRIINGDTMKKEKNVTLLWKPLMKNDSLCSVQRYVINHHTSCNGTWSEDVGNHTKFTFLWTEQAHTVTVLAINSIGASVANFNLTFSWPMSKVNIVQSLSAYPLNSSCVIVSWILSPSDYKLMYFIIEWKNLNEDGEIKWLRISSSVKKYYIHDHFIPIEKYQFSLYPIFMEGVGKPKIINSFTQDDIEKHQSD
# T2: human LEPR CRH1 (D1,D2)-MMH (human, UniProt P48357 22-339, limits assumed)
# T2 construct: domain: CRH1 (D1,D2); Transiently expressed, captured from supernatant on anti-myc beads
# T2 sequence (looked up): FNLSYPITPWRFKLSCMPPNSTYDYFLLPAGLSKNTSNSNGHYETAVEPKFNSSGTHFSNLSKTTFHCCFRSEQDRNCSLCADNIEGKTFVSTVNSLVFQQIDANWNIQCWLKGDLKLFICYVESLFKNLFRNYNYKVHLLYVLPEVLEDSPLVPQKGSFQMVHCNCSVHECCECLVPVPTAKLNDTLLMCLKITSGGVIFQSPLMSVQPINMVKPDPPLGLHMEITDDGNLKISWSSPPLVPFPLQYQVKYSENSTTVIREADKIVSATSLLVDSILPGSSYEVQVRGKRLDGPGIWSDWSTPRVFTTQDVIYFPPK
# T3: human LEPR Ig-CRH2-FNIII-MMH (human, UniProt P48357 330-839, limits assumed)
# T3 construct: domain: Ig-CRH2-FNIII; Transiently expressed, captured from supernatant on anti-myc beads
# T3 sequence (looked up): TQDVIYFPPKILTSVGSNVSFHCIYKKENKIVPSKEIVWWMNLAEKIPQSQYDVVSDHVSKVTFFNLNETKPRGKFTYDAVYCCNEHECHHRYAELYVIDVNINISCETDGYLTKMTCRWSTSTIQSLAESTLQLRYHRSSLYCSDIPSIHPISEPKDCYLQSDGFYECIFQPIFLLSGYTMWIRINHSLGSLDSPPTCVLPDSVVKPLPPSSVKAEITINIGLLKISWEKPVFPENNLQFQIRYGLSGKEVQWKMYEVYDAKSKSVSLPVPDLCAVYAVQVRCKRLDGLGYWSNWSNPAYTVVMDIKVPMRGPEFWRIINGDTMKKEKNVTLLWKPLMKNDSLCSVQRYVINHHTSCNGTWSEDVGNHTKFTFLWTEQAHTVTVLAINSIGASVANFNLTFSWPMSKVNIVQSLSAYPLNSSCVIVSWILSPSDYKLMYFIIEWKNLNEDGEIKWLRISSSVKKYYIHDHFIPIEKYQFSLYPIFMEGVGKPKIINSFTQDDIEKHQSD
# What was measured:
# [1] = molecular target: T1, extracellular domain of human LEPR with …; experiment: FACS, 10 nM Ab, HEK293/hLEPR-GPI cells, 1 µM Leptin
# Protocol: For the FACS analysis, HEK293 parental cells and HEK293/hLEPR-GPI cells were dissociated and plated onto 96-well v-bottom plates at 5×10⁵ cells/well in PBS containing 2% FBS (FACS buffer). […] Cells were subsequently fixed using BD CytoFix™ (Becton Dickinson, #554655), filtered, and analyzed on a HyperCyt Flow Cytometer (Beckman Coulter). Unstained and secondary antibody alone controls were also tested for all cell lines. The results were analyzed using ForeCyt (IntelliCyt) and FlowJo version 10 softwares to determine the geometric means of fluorescence for viable cells. The geometric mean of fluorescence for each sample was then normalized to the geometric mean of unstained cells to obtain relative binding per condition referred to as “binding ratios”, and these binding ratios were recorded in Table 14 for each antibody tested.
# [2] = molecular target: T2, human LEPR CRH1 (D1,D2)-MMH; experiment: Luminex, myc-captured LEPR protein on beads, Ab 5 µg/mL
# Protocol: (§1) Aliquots of microspheres with immobilized anti-myc monoclonal antibodies, prepared as described above, were added individually to 1 mL of the each of these protein supernatants. The microspheres were gently mixed, incubated for two hours at 25° C., washed twice with 1 mL of DBPS, centrifuged to remove the supernatant and finally resuspended in 1 mL of DPBS buffer. Forty eight μL of anti-myc IgG coupled microspheres from individual reactions with full length human LEPR and with each of the human LEPR domain proteins were withdrawn and mixed together in 3.6 mL of PBS+20 mg/mL BSA+0.05% sodium azide (blocking buffer).
# (§2) From this mixed pool, 75 μL of microspheres were plated per well on a 96 well filter plate (Millipore, Cat. No: MSBVN1250) and mixed with 25 μL of individual anti-human LEPR monoclonal antibodies (0.5 or 5 μg/mL), incubated for two hours at 25° C. and then washed twice with 200 μL of DPBS with 0.05% Tween 20 (washing buffer). […] After 30 minutes, the samples were washed twice with 200 μL of washing buffer and resuspended in 150 μL of wash buffer. The Median Fluorescence intensity (MFI) of the microspheres was measured in a Luminex Analyzer.
# [3] = molecular target: T3, human LEPR Ig-CRH2-FNIII-MMH; experiment: as above
# Protocol: as §1, §2
Binder,Binding Ratio (normalized to unstained) [1],Luminex MFI [2],Luminex MFI [3]
"H4H18462P2 (antibody, human IgG4, V domains shown, H4H prefix: human IgG4 Fc) VH: EVQLVESGGDLVQPGRSLRLSCAASGFTFSSFAMSWVRQAPGRGLEWVSSLSDSGDNTYYADSVKGRFTISRDNSKNTLYLQMNNLRAEDTAVYYCAKDLFSGWLFHGFDVWGQGTMVTVSS VL: not shown",759 fold,5730 MFI,14900 MFI
"H4H18464P2 (antibody, human IgG4, V domains shown, H4H prefix: human IgG4 Fc) VH: QVQLVQSGPEVKKPGASVKVSCKGSGYTFSWYGISWIRQAPGHGLEWMGWISASSGNTRFAQKVQGRLTMTTDTSTSTAYMELRSLRSDDTAVYYCARTGTRPFDYWGQGTLVTVSS VL: not shown",3590 fold,59 MFI,15100 MFI
"H4H18437P2 (antibody, human IgG4, V domains shown, H4H prefix: human IgG4 Fc) VH: QVQLVESGGGVVQPGRSLRLSCAASGFTFSSYGIHWVRQAPGKGLEWVAVISYDGNNKYYADSVKGRFTISRDNSKNTLYLQMNSLRAEDTAVYYCAKDLFLEWLFHGMGVWGQGTTVTVSS VL: not shown",,82 MFI,15600 MFI
"H4H18440P2 (antibody, human IgG4, V domains shown, H4H prefix: human IgG4 Fc) VH: QVQLVESGGGMVKPGGSLRLSCAASGFTFSDYYMSWIRQAPGKGLEWISHISITGSTIYYADSVKGRFTISRDNAKNSLYLEMNRLRDEDTAVYYCTRDEPDIVLVRYGMDVWGQGTTVTVSS VL: not shown",2560 fold,19300 MFI,32 MFI
"H4H18457P2 (antibody, human IgG4, V domains shown, H4H prefix: human IgG4 Fc) VH: EVQLVESGGSVVRPGESLRLSCAASGFTFDDYGMSWVRQAPGKGLEWVSGISWNGGITVYADSVKGRFTVSRDNAKNSLYLQMNSLRAEDTALYHCARARYGGADYWGQGTLVTVSS VL: not shown",3110 fold,53 MFI,13200 MFI
"H4H17322P2 (antibody, human IgG4, V domains shown, H4H prefix: human IgG4 Fc) VH: QLQLQESGPGLVKPSETLSLTCTVSGASISSSRFYGGWIRQPPGKGLEWIGDIYYSGNTYYNPSLQSRVTISVDTSKNQFSLKLSSVTAADTAVYYCARHLMITFGGLIVEGFDIWGQGTMVTVSS VL: not shown",,50 MFI,15100 MFI
"H4H18439P2 (antibody, human IgG4, V domains shown, H4H prefix: human IgG4 Fc) VH: QLQLQESGPGLVKPSETLSLTCIVSGGDITSSSYYWNWIRQPPGKGLEWIGNIYYSGSTNYNPSLKSRVTISIDTSKSQFSLKLRSVTAADTAVYYCARLLRYFDWSKGYLDYWGQGTLVTVSS VL: not shown",2480 fold,21200 MFI,43 MFI
"H4H18466P2 (antibody, human IgG4, V domains shown, H4H prefix: human IgG4 Fc) VH: EVQLVESGGGLVQPGGSLRLSCTASGFTFSSYGLHWVRQAPGKGLEYVSSINHNGGSKYYADSVKGRFTISRDNSKNTLFLQMGSLKTEDMAVYYCARDLFLEWLFHGFDIWGQGTMVTVSS VL: not shown",398 fold,56 MFI,11300 MFI
